In one assay the target is T1, FAM19A5 mutant M2 (human).
T1 chain: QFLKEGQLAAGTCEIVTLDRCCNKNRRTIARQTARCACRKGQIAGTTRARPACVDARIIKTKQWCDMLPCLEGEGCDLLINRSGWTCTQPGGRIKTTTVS
Nature of the assay: ELISA on phage-expressed FAM19A5 mutants M1-M8. In general terms: ELISA stands for enzyme-linked immunosorbent assay.

Assay [1] deals with T2, FAM19A5 epitope fragment F2, BSA-conjugated (human, conjugated to BSA).
T2 peptide: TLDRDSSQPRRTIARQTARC
Kind of assay: ELISA, plate-coated BSA-conjugated FAM19A5 fragments F1-F6. The protocol: (§1) Binding of the different anti-FAM19A5 antibodies to the BSA-conjugated peptide fragments F1-F6 was determined by Western blot analysis or ELISA assay. For the Western blot analysis, BSA-conjugated FAM19A5 fragments F1-F6 were separated by SDS polyacrylamide gel electrophoresis and transferred to a nitrocellulose membrane by the standard procedure. The membrane was incubated with the anti-FAM19A5 antibody (e.g., 1-65, […], 1-65-scFv-rabbit Fc-SSS), and the antigen-antibody complexes were detected with the appropriate secondary antibody conjugated with horse-radish peroxidase (anti-rabbit IgG (Fc specific)-HRP, 1:4000 dilution). For the ELISA assay, the following protocol was used. FAM19A5 fragment F1-F6 (diluted to 1 μg/mL in 50 mM carbonate buffer (Biosesang) or to 20 μg/mL for high concentration analysis) were used to coat the wells of 96-well immuno plates (Thermo Scientific) (100 μL/well) overnight at 4° C. and then subsequently washed twice in 1×PBS. The plates were then blocked with the blocking buffer (100 μL/well) for 1 hour at room temperature. During the 1-hour incubation, the relavant anti-FAM19A5 antibodies were diluted to 1 μg/mL (or 20 μg/mL for high concentration analysis) in the diluent buffer. Once the plates were washed (2× using 1×PBS), the diluted anti-FAM19A5 antibodies were added to the appropriate wells, and the plates were incubated at room temperature for 1 hour. The plates were subsequently washed for a total of five times using the washing buffer. Next, the ODP substrate (prepared by dissolving one ODP tablet (O-phenylenediamine Dihydrochloride, Thermo) into 9 mL of sterilized deionized water and 1 mL of 10× stable Peroxide Stable buffer (Theromo)) was added to each of the wells, and the color change reaction was allowed to occur for 10 minutes. This reaction was stopped by adding 100 μL of 2N H2SO4 (Daejung) to the wells. The absorption value of each of the wells was detected at 492 nm using a 96-well microplate reader (Molecular Device).
(§2) As shown in FIGS. 19 and 20A, the anti-FAM19A5 antibody 1-65 bound strongly to fragment F5 as measured by both Western Blot and ELISA assay, respectively.

The target of assay [2] is T3, Mutant F5 peptide F5-8 (#8) (human).
T3 construct: already contained in the entry; also called mutant peptide #8
T3 peptide: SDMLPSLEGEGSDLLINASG
Kind of assay: ELISA, plate-coated F5 mutant peptides.

Assay [3] addresses T4, Mutant F5 peptide F5-3 (#3) (human).
T4 construct: already contained in the entry; also called mutant peptide #3
T4 peptide: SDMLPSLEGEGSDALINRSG
Kind of assay: ELISA, plate-coated F5 mutant peptides.

Assay [4] addresses T5, Mutant F5 peptide F5-7 (#7) (human).
T5 construct: already contained in the entry; also called mutant peptide #7
T5 peptide: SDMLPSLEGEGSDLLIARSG
Nature of the assay: ELISA, plate-coated F5 mutant peptides.

The target in assay [5] is T6, Mutant F5 peptide F5-2 (#2) (human).
T6 construct: already contained in the entry; also called mutant peptide #2
T6 peptide: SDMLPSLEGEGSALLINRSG
Kind of assay: ELISA, plate-coated F5 mutant peptides.

In assay [6] the target is T7, Mutant F5 peptide F5-5 (#5) (human).
T7 construct: already contained in the entry; also called mutant peptide #5
T7 peptide: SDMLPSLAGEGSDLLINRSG
Nature of the assay: ELISA, plate-coated F5 mutant peptides.

Assay [7] concerns the target T8, Mutant F5 peptide F5-1 (#1) (human).
T8 construct: already contained in the entry; also called mutant peptide #1
T8 peptide: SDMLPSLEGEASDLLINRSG
Nature of the assay: ELISA, plate-coated F5 mutant peptides.

Assay [8] concerns the target T9, Mutant F5 peptide F5-6 (#6) (human).
T9 construct: already contained in the entry; also called mutant peptide #6
T9 peptide: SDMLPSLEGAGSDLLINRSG
Nature of the assay: ELISA, plate-coated F5 mutant peptides.

In assay [9] the target is T10, Mutant F5 peptide F5-4 (#4) (human).
T10 construct: already contained in the entry; also called mutant peptide #4
T10 peptide: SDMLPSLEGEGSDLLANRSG
Nature of the assay: ELISA, plate-coated F5 mutant peptides.

The target of another assay is T11, FAM19A5 mutant M7 (human).
T11 chain: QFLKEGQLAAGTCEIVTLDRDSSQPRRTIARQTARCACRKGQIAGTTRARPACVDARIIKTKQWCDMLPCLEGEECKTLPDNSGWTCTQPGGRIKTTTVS
Kind of assay: ELISA on phage-expressed FAM19A5 mutants M1-M8.

Another assay concerns the target T12, FAM19A5 mutant M8 (human).
T12 chain: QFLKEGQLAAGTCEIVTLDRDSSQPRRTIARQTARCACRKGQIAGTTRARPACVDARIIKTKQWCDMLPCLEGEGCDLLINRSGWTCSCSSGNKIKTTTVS
Kind of assay: ELISA on phage-expressed FAM19A5 mutants M1-M8.

A further assay concerns the target T13, FAM19A5 mutant M6 (human).
T13 chain: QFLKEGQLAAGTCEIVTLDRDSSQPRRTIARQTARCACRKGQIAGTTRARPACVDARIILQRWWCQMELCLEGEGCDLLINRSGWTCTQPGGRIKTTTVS
Kind of assay: ELISA on phage-expressed FAM19A5 mutants M1-M8.

The target in assay [10] is T14, FAM19A5 epitope fragment F1, BSA-conjugated (human, also: conjugated to BSA).
T14 construct: which number belongs to which fragment is not spelled out
T14 peptide: QLAAGTCEIVTLDR
Kind of assay: ELISA, plate-coated BSA-conjugated FAM19A5 fragments F1-F6. On the procedure:
as §1, §2

Assay [11] addresses T15, FAM19A5 epitope fragment F6, BSA-conjugated (human, conjugated to BSA).
T15 peptide: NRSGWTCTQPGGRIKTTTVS
The description is as above. The protocol: as §1, §2

Assay [12] addresses T16, FAM19A5 epitope fragment F3, BSA-conjugated (human, conjugated to BSA).
T16 peptide: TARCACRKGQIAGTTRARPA
Described as above. On the procedure: as §1, §2

Ends that are not written are not given here.

B1: Anti-FAM19A5 antibody 3-2 (antibody, V domains shown)
VH: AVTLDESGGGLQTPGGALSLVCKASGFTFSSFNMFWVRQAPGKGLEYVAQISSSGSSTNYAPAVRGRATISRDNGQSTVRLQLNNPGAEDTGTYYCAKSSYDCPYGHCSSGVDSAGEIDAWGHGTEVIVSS
VL: ALTQPSSVSANPGETVKITCSGGGSYAGSYYYGWYQQKAPGSAPVTLIYESNKRPSDIPSRFSGSTSGSTATLTITGVQADDEAIYYCGSWDSSNGGIFGAGTTLTVL
notes: also called h3-2; m3-2
Regarding B1, the results for the binding result (in the assay with FAM19A5 mutant M2; in assay [1]) were “no binding” and “binds”, respectively.

B2: Anti-FAM19A5 antibody 1-65 (antibody, V domains shown)
VH: AVTLDESGGGLQTPGGALSLVCKASGFTFSSYQMGWVRQAPGKGLEWVGVINKSGSDTSYGSAVKGRATISRDNGQSTVRLQLNNLRAEDTGTYFCAKGSASYITAATIDAWGHGTEVIVSS
VL: ALTQPSSVSANPGETVKITCSGGGSSGYGYGWYQQKSPSSAPLTVIYWNDKRPSDIPSRFSGSKSGSTHTLTITGVQAEDEAVYFCGNDDYSSDSGYVGVFGAGTTLTVL
notes: also called monoclonal antibody clone 1-65
Turning to B2, the binding result in assay [2] is listed as “no binding”; in assay [3], “no binding”; in assay [4], “binds”; in [5], “no binding”; in [6], “binds”; in assay [7], “binds”. Moreover, the binding result in assay [8] was “binds”; in [9], “no binding”; with FAM19A5 mutant M7, “no binding”; in the assay with FAM19A5 mutant M8 it was “no binding”; with FAM19A5 mutant M6, “no binding”.

B3: Anti-FAM19A5 antibody P2-A03 (antibody, V domains shown)
VH: QSVEESGGRLVTPGTPLTLTCTVSGFSLNNYDMSWVRQAPGKGLEYIGFMDTDGSAYYATWAKGRFTISRTSTTVDLKMTSPTTEDTATYFCARRGSSYYGGIDIWGPGTPVTVSL
VL: ELDLTQTPASVSEPVGGTVTIKCQASQSIGGNLAWYQQKPGQPPKLLIYRASTLASGVPSRFKGSGSGTDFTLTISDLECADAATYYCQSPAYDPAAYVGNAFGGGTELEIL
As for B3, the binding result in the assay with FAM19A5 mutant M8 is listed as “no binding”.

B4: Anti-FAM19A5 antibody P2-C12 (antibody, V domains shown)
VH: QSLEESGGRLVTPGTPLTLTCTVSGFSLSTYAVTWVRQAPGKGLEWIGYINWRGGTSYANWAKGRFTISKTSSTTVDLKMTSPTTEDTATYFCARDASSGAAFGSYGMDPWGPGTLVTVSS
VL: ELDMTQTPSSVSAAVGGTVTIKCQASQSISSYLSWYQQKPGQPPKLLIYEASKLASGVPSRFSGSGYGTEFTLTISDLECADAATYYCQQGYSSTNVWNAFGGGTNVEIK
For B4, the binding result in assay [2] is on record as “no binding”; in assay [3], “binds”; in [4], “binds”; in [5], “binds”; in assay [6], “binds”; in [7], “no binding”. The binding result in assay [8] is “no binding”; in assay [9], “binds”; with FAM19A5 mutant M6 it was “no binding”; in [10], “no binding”; in assay [11], “no binding”; in [1], “no binding”. Besides, the binding result in [12] was “no binding”.

B5: Anti-FAM19A5 antibody 13F7 (antibody, V domains shown)
VH: QVQLQEWGAGLLKPSETLSLTCAINAESFNGYSWTWIRQTPGKGLEWIGEISHFGSANYNPSLKSRATISADKSKNQFSLKLTSVTAVDTAVYYCARALRGTYSRFYYGMDVWGQGTTVTVSS
VL: DIVMTQTPLSLPVAPGEPASISCRSSQSLLHSNGYNYLDWYVQKPGQPPQLLIYLGSNRASGVPDRFSGSGSGTDFTLKISRVEAEDVGVYYCMQARQTPLTFGGGTKVEIK
As to B5, the binding result in the assay with FAM19A5 mutant M7 was “binds”; with FAM19A5 mutant M8, “no binding”.

B6: Anti-FAM19A5 antibody 13B4 (antibody, V domains shown)
VH: QVQLQESGPGLVKPSGTLSLNCAVSGGSISSSNWWSWVRQPPGKGLEWIGEIYHGGTTNYNPSLKGRVTMSVDKTKNQFSLRLSSVTAVDTAVYYCARWQLVGGLDVWGQGTTVTVSS
VL: SYELTQPLSVSVSPGQTASITCSGDKLGNVYASWYQQKPGQSPTLVIYQDNKRPSGIPERFSGSNSGKTATLTISGTQALDEADYYCQAWDSSTAVFGGGTKLTVL
In the case of B6, the binding result with FAM19A5 mutant M7 is given as “binds”; with FAM19A5 mutant M8, “no binding”; with FAM19A5 mutant M6 it was “no binding”.

(Values after patent publication US20260265360A1 (NEURACLE SCIENCE, published 2026).)
